Assay results reported in patent US20250002574A1 (SUNSHINE LAKE PHARMA, published 2025).
Residue numbers refer to the chain shown, from its start.

T1: IL-11 (UniProt P20809 22-199, limits assumed)
T1 construct: also called IL-11 protein; IL-11 antigen
T1 sequence (looked up): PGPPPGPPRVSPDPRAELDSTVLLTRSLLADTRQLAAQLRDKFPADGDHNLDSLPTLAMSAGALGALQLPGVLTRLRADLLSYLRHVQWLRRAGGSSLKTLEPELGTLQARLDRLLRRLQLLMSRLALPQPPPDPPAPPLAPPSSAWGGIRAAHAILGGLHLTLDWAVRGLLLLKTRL

B1: 3-6A4 (hybridoma) (antibody, human IgG1, kappa, V domains shown)
VH: QIQLVQSGPELKKPGETVKISCKASGYTFTTNGINWVKQAAGKGLKWMGWINTNTGEPTNAEELKGRFAFSLETSASTAYLQINNLKNEDAAIYFCAREGAFGLDYWGQGTSVTVSS
VL: SIVMTQSPKFLLVSAGDRVIITCKASQSVSNDVVWYQQKPGQSPKLLIYYGSHRNTGVPTRFTGSGYGTDFTFTISTVQAEDLAVYFCQQDFFSPWTFGGGTKLEIKR
notes: only the variable parts apply for certain
B2: 3-5B2-2G4 (antibody, human IgG1, kappa, V domains shown)
VH: QIQLVQSGPELKKPGETVKISCKASGYTFTNYGMNWVKQAPGKGLKWMGWINTNTGEPTYAEEIKGRFAFSLETSASTAYLQINNLKNEDTATYFCSREGIYGMDSWGQGTSVTVSS
VL: B1 VL with S7T, I20T, Q37R, G51A, H53N, N55Y, T56I, T60D, F92Y, F93Y
B3: 5-20E11-5F2 (hybridoma subclone) (antibody, human IgG1, kappa, V domains shown)
VH: QVQLQQSGAELVRPGTSAKISCKASDYTFTNYWLGWLKQRPGHGLEWIGHIYPGGGYTNYNEKFKGKATLTADTSSSTAYMQLSSLTSEDSAVYFCARVRSGNDALDFWGQGTSVTVSS
VL: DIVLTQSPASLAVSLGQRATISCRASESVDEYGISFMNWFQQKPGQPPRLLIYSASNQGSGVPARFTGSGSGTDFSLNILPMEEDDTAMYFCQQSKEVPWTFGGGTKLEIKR
B4: 1E12 (scFv)
scFv: QVQLVQSGAEVKKPGASVKVSCKASDYTFTNYWLGWVRQAPGQGLEWMGHIYPGGGYTNYNEKFKGRVTMTRDTSTSTVYMELSSLRSEDTAVYYCARVSSGNDALDLWGQGTLVTVSSGGGGSGGGGSGGGGSEIVLTQSPATLSLSPGERATLSCRASESVDEYGISFMNWFQQKPGQAPRLLIYSGSNEGSGIPARFSGSGSGTDFTLTISSLEPEDFAVYFCNQSKEVPWTFGGGTKLEIK
notes: As m119: scFv on phage
B5: 1F7 (scFv)
scFv: B4 scFv with G35A, S100R, L108F, L155V, R183T, G189A, E192L, N227Q
notes: As m119: scFv on phage
B6: 1F9 (scFv)
scFv: B4 scFv with T30H, L108F, G189A, E192Q, N227Q, V232L
notes: As m119: scFv on phage
B7: 1F10 (scFv)
scFv: B4 scFv with S100R, L108I, G189A, E192Q, S194D, N227Q, E231D
notes: As m119: scFv on phage
B8: 1F12 (scFv)
scFv: B4 scFv with L108F, G189A, E192Q, G193A, N227Q, V232L
notes: As m119: scFv on phage
B9: 1G9 (scFv)
scFv: B4 scFv with K13Q, S100R, L108F, G131D, G189A, E192R, S214N, N227Q
notes: As m119: scFv on phage
B10: 1G11 (scFv)
scFv: B4 scFv with L108F, G189A, E192Q, G193A, N227Q, V232L
notes: As m119; the printed mutations are the same as those of 1F12
B11: 2E2 (scFv)
scFv: B4 scFv with L108F, G189A, E192Q, N227Q, V232L
notes: As m119: scFv on phage
B12: 2E7 (scFv)
scFv: B4 scFv with G54S, L108F, G189A, E192Q, N227Q, V232L
notes: As m119: scFv on phage
B13: 2F1 (scFv)
scFv: B4 scFv with L108F, G189A, E192Q, N227Q, V232L
notes: As m119; the printed mutations are the same as those of 2E2
B14: 2F2 (scFv)
scFv: B4 scFv with G122E, G189A, E192Q, N227Q
notes: As m119: scFv on phage
B15: 2G9 (scFv)
scFv: B4 scFv with L108F, S188G, G189A, E192Q, N227Q, V232L
notes: As m119: scFv on phage
B16: Original sequence (1H9) (scFv)
scFv: B4 scFv with S100R, L108F, G189A, E192Q, N227Q
notes: Template scFv of the phage library, on phage; also called ScFv VH-Linker-VL of VH1+VL3

Target: T1, IL-11
Assay: flow, IL-11 + antibody on IL-11R cells; lower = more blocking

| Binder | FITC Mean [mean fluorescence] |
| --- | --- |
| B1 | 3040 |
| B2 | 19800 |
| B3 | 3110 |

Target: T1, IL-11
Assay: flow cytometry of phage clone; cells not given

| Binder | Flow (Mean) [mean fluorescence] |
| --- | --- |
| B4 | 6320 |
| B5 | 1860 |
| B6 | 3820 |
| B7 | 2640 |
| B8 | 4140 |
| B9 | 2240 |
| B10 | 2900 |
| B11 | 2100 |
| B12 | 1990 |
| B13 | 2390 |
| B14 | 2000 |
| B15 | 1910 |
| B16 | 450 |

Target: T1, IL-11
Assay: phage ELISA on IL-11

| Binder | ELISA |
| --- | --- |
| B4 | 2.2 |
| B5 | 2.38 |
| B6 | 2.59 |
| B7 | 2.6 |
| B8 | 2.59 |
| B9 | 2.81 |
| B10 | 2.58 |
| B11 | 2.58 |
| B12 | 2.19 |
| B13 | 2.1 |
| B14 | 2.65 |
| B15 | 2.09 |
| B16 | 1.16 |

Target: T1, IL-11
Assay: ELISA on IL-11, monoclonal hybridoma antibody

| Binder | OD450 [OD450] |
| --- | --- |
| B1 | 1.58 |
| B2 | 1.65 |
| B3 | 1.6 |
